Measured values as given in the supplement of paper PMC9170038.

Test system: MS2 coat protein
Assay: apparent KD of MS2 coat protein; designed switch direction (-1 OFF switch, 1 ON switch): -1; higher = weaker reporter binding
How it was run: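 Stalled E. coli RNA polymerase transcribed designed RNA switches on Illumina chips, which were then titrated with SNAP-549-labelled MS2 coat protein, doubling from 0.7 or 1.5 nM to 3 µM. Steps lasted from 0.8–1.5 h at the lowest concentration to 10–20 min at the highest. The apparent KD is each design's median over clusters of curve-fitted normalised fluorescence.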

[1] = input ligand: microRNA oligo, concentration not stated
[2] = Eterna round: R95, input ligand: FMN 200 uM
[3] = Eterna round: R95, input ligand: microRNA oligo, concentration not stated
[4] = Eterna round: R95, input ligand: none

| Sequence | apparent KD of MS2 coat protein (input ligand: FMN 200 uM) | apparent KD of MS2 coat protein [1] | apparent KD of MS2 coat protein (input ligand: none) | apparent KD of MS2 coat protein [2] | apparent KD of MS2 coat protein [3] | apparent KD of MS2 coat protein [4] |
| --- | --- | --- | --- | --- | --- | --- |
| UUGUUAUAUGUAGGAUAUGCGUGUUAUUAUUAGGCAGAAGGACAUGAGGAUCACCCAUGUAUGUUGUUGUUAUAUAUUAUAUAU [Title] (Eterna round: R96, puzzle: Exclusion NG 1) | 0.0229 µM | 0.0178 µM | 0.0256 µM |  |  |  |
| CUGAGCAGACGGAGAUCCAACAUGAGGAUCACCCAUGUCUCAAAAGCUUUUUGCUCGUCUUAUCCUCCUCUGCUCUC [Orgeain] (puzzle: Sensor v3, turn-off variant 1) |  |  |  | 0.0148 µM | 0.0316 µM | 0.0141 µM |
| GGUCAAGAACAGAACCGCGCUGCCCUUGACCGCUCAUUUACAUGAGGAUCACCCAUGUUUUUUGCUUGUCUUGUUAC [Qugeon] (puzzle: Sensor v3, turn-off variant 2) |  |  |  | 0.0162 µM | 0.0896 µM | 0.0173 µM |
| CCAAGCUUAUUCAUUAACCACAUGAGGAUCACCCAUGUAUAGGCAAUUAUGACUGGGCUCUGUGGUGCUCGUCUUCU [mod-malcom] (Eterna round: R97, puzzle: Sensor, turn-off variant 1) | 0.0597 µM |  | 0.0603 µM |  |  |  |
| UUAUGUGCGAGAGGAUAUCGUGUACAAAGUACACGAGAAGGCUUCACAUGAGGAUCACCCAUGUACCGAGGUGAAACACCUUGA [Omei Exc(NG)1 Bv7] (Eterna round: R96, puzzle: Exclusion NG 1) | 0.66 µM | 0.476 µM | 0.887 µM |  |  |  |
| AACUAAACAUGAGGAUAUGCCUGGGAAGAACAGGCAGAAGGCGUGACAUGAGGAUCACCCAUGUAGCCGGGCUAUUCUCAUGCG [Cediceor] (Eterna round: R96, puzzle: Exclusion NG 1) | 0.0253 µM | 0.0261 µM | 0.0313 µM |  |  |  |
| CCUACUCAGCGAGGAUAUGUAACGGUGACUAGGGACGUCUACAUGAGGAUCACCCAUGUGACUAAGCAGAAGGCGCAGAGCCCA [Learve] (Eterna round: R96, puzzle: Exclusion NG 2) | 0.0542 µM | 0.0331 µM | 0.0477 µM |  |  |  |
| CAAUUAAUUAAUUAAUAAUACAUGAGGAUCACCCAUGUAGAUCCUACAUACAAGCUAAGUAGCUCGUCUUAUAAUUA [Stov1/2-A3] (Eterna round: R97, puzzle: Sensor, turn-off variant 1) | 0.417 µM |  | 0.625 µM |  |  |  |
| UAUAUAUAGUAAGGAUAUGUAUUUAUUUUAGAAACAGAAGGUACUGACAUGAGGAUCACCCAUGUUUUAGUGUGGGCAUGUAGA [JMF's solution 23] (Eterna round: R96, puzzle: Exclusion NG 1) |  | 0.062 µM |  |  |  |  |
| ACCAAGCUAGGAUAUGCUUGGGCUCAAAUAAAUAAACACAAACAUGAGGAUCACCCAUGUAGAAGGAGCUUGCU [Zaabiquer] (puzzle: Exclusion 2) |  |  |  |  | 0.0126 µM |  |
| GGUUAUUGCAAGGAUAUGCUUUUUUUUUAUUUUGCAGAAGGUGCAACAUGAGGAUCACCCAUGUUGGAGGGUUU [JR_E6_Sub023] (puzzle: Exclusion 6) |  |  |  |  | 0.0217 µM |  |
| CAGUACUGAGGAUAUACAUGAGGAUCACCCAUGUGUUCCAGCUAGGAAACUAGCAAUAGUAGAAGGCAGUACUG [salish99_ex3_r3_090x] (Eterna round: R96, puzzle: Exclusion 3) | 0.417 µM | 0.0191 µM | 0.0232 µM |  |  |  |
| GUCCCACAUGAGGAUCACCCAUGUGAGGAUAUGGUUUCGCUGGCCGUAGCCAGUGGAACCAGAAGGCGCAUGAU [Mat - Exclusion 1 - JL Mod - D2] (Eterna round: R97, puzzle: Exclusion 1) | 0.0252 µM |  | 0.0203 µM |  |  |  |
| UAGGACAAAGGAUAUACGUGUUAUGAUCGGGAUAACAAAAGACAUGAGGAUCACCCAUGUAGAAGGUUGCUUGA [EX2 B.25] (Eterna round: R97, puzzle: Exclusion 2) | 0.0262 µM |  | 0.0178 µM |  |  |  |
| UUAACGUCAGGAUAUGCUUAAUAUAUUAUAUUAUAAUAUAUACAUGAGGAUCACCCAUGUAGAAGGGACAUUAU [LRO-Excl2-02-Fireball XL5] (Eterna round: R97, puzzle: Exclusion 2) | 0.0341 µM |  | 0.0521 µM |  |  |  |
| GGACCUGGAGGAUAUAGAGCACUGAACAUGAGGAUCACCCAUGUGACCGGUGUAGUGCACCUAGAAGGCCGCGGCA [Eternabot (L1) Solution 40] (Eterna round: R97, puzzle: Exclusion 5) | 0.129 µM |  | 0.0654 µM |  |  |  |
| AAAAAGGUAGGAUAUCCACUUUAAAACAUGAGGAUCACCCAUGUAAAACCACAUGAAAAAGGAGAAGGACCAAAAA [AK-MS2ROC-r4-exclusion5-2] (Eterna round: R97, puzzle: Exclusion 5) | 0.0247 µM |  | 0.026 µM |  |  |  |

| Sequence | apparent KD of MS2 coat protein (input ligand: FMN 200 uM) | apparent KD of MS2 coat protein [1] | apparent KD of MS2 coat protein (input ligand: none) | apparent KD of MS2 coat protein [2] | apparent KD of MS2 coat protein [3] | apparent KD of MS2 coat protein [4] |
| --- | --- | --- | --- | --- | --- | --- |
| UGUUGUCGCGUAGGAUAUGAGGAUCACCCAUAUAGAGGAUAUGAAAAGAAGGCUCUGAGGAUCACCCAGAAGGACGGGACAACU [pwkr exNG2 2xF5 2xFMN.24] (Eterna round: R96, puzzle: Exclusion NG 2) | 1.72 µM | 0.214 µM | 0.207 µM |  |  |  |
| CCGGAUUAGUAGGAUAUAGGAGUCGAUAGACACCUAGAAGGACUAACAUGAGGAUCACCCAUGUGUCCUACCGG [Mod of Eli 19 - Jieux - Exclusion 6] (Eterna round: R97, puzzle: Exclusion 6) | 0.039 µM |  | 0.0167 µM |  |  |  |
| CUAGUCCGAGGAUAUAUUAAGUGAUACAUGAGGAUCACCCAUGUUAUUUAAUGGAUGUUAAUAGAAGGCGGACUAG [Mat - Exclusion 5 - JL mod - D76] (puzzle: Exclusion 5) |  |  |  | 0.055 µM | 0.0377 µM | 0.0778 µM |
| ACAUGAGGAUCACCCAUGUAAACGUAAUGGCUCAUGUAGAGUCAGGAUAUGCGUGGCGAACUCGCGCAGAAGGGACAAGACUGG [Deportation 22 - Jieux - Exclusion NG 3] (Eterna round: R96, puzzle: Exclusion NG 3) | 0.0304 µM | 0.0237 µM | 0.0286 µM |  |  |  |
| AGGUGUAGAGGAUAUACAGUGUAUUACAUGAGGAUCACCCAUGUCCUUCAAUGGGUGUCAGUAGAAGGCUACACCA [Omei Ex5 C2] (Eterna round: R97, puzzle: Exclusion 5) | 0.255 µM |  | 1.66 µM |  |  |  |
| GGAGUGUAAGGAUAUAAGACAAGGGCUAUCGGAGCCCAAAUUUAGAAGGUACAUGAGGAUCACCCAUGUGAUGA [Eternabot (L1) Solution 5] (Eterna round: R97, puzzle: Exclusion 4) | 0.124 µM |  | 0.0272 µM |  |  |  |
| UGGAGUAUGUAGGAUAUUCAGGCAAAGAAAGCCGAAGAAGGACAUACUUGAGGAUCACCCAAGUUGUCCAAAAU [Zaanatatri] (Eterna round: R97, puzzle: Exclusion 6) | 0.0258 µM |  | 0.0151 µM |  |  |  |
| UGAUUCCUAGGAUAUGCUGGAUAUGAGGUCCCGAGUUGCCGACAUGAGGAUCACCCAUGUAGAAGGAGGUGUCG [Eternabot (L1) Solution 66] (Eterna round: R97, puzzle: Exclusion 2) | 0.199 µM |  | 0.105 µM |  |  |  |
| AAAUAGCUAGAGGAUAUUGGAUAGGAUUUAGUACGAGAAGGUUAGACAUGAGGAUCACCCAUGUUGUGUUGGGA [EX6 #16] (Eterna round: R97, puzzle: Exclusion 6) | 0.0492 µM |  | 0.0529 µM |  |  |  |
| AUUUAUGGAGGAUAUACUUGAGGAUCACCCAAGUGGAGUCCCAAAUGGGCGGUAAAUAGUAGAAGGCCGUCUUA [jl-ex3-4.49 ViennaUCT mod] (Eterna round: R97, puzzle: Exclusion 3) | 0.0172 µM |  | 0.0165 µM |  |  |  |
| CUUUUGUGAGGAUAUUAGUAGUAAAUAAUUAAAAUUAUUACUGAGAAGGCACAUGAGGAUCACCCAUGUUCCUC [Salish 062 v15] (Eterna round: R97, puzzle: Exclusion 4) | 0.752 µM |  | 0.0429 µM |  |  |  |
| GCAAGCUUUUUCAAUAAGAACAUGAGGAUCACCCAUGUUUAAGGUAUUACUUUUGGGCUCUUUAGUGCUAGUCUUAU [JR_STOV1_Sub036] (Eterna round: R97, puzzle: Sensor, turn-off variant 1) | 0.0459 µM |  | 0.0455 µM |  |  |  |
| AUAUAGCGAGGAUAUACAUGAGGAUCACCCAUGUAGGUUCCGGGUUUUCCAGUAAAAUGUAGAAGGCGCAUGGA [EX3 B.5] (Eterna round: R97, puzzle: Exclusion 3) | 0.0994 µM |  | 0.0446 µM |  |  |  |
| GAAAAGAAAGGAUAUACAGGGAAAUGAACCGCACGUAAACCACAUGAGGAUCACCCAUGUAGAAGGUUCAGUGC [Edenusra] (puzzle: Exclusion 2) |  |  |  |  | 0.0106 µM |  |
| GCAAGCUUUUCGAUCCUCGACAUGAGGAUCACCCAUGUGCUCGAAUUGUUUAGUACUAUCACGAAAGUGAUAGUACA [Sensor, turn off variant 1 v.3] (Eterna round: R97, puzzle: Sensor, turn-off variant 1) | 1.57 µM |  | 1.57 µM |  |  |  |
| ACAUGAGGAUCACCCAUGUAAACAUAAUGGCUCAUGUAGAGUCAGGAUAUGCGUGGCGAACAAACGCAGAAGGGACAAGACUGG [Deportation 26 - Jieux - Exclusion NG 3] (Eterna round: R96, puzzle: Exclusion NG 3) | 0.0281 µM | 0.0308 µM | 0.0296 µM |  |  |  |
| UUCGUGCAGCUUUGCUGUACGAGUACAUGAGGAUCACCCAUGUAGGAUAUGGUACGCUUUGCGUGCUAGAAGGAUAUGUGUAGC [salish99_ExNG3_r04_504] (Eterna round: R96, puzzle: Exclusion NG 3) |  | 0.0257 µM |  |  |  |  |
